The source of these data is article PMC2171815.

For the experiment, the target named is Cog3p (subunit 3 of the conserved oligomeric Golgi (COG) complex) (rat (endogenous in rat liver Golgi)). The experiment in a line: co-IP.

B1: GS28 (intra-Golgi v-SNARE) (natural protein)
chain: MAAGTSNYWEDLRKQARQLENELDLKLVSFSKLCTSYSHSSARDGGRDRYSSDTTPLLNGSSQDRMFETMAIEIEQLLARLTGVNDKMAEYTHSAGVPSLNAALMHTLQRHRDILQDYTHEFHKTKANFMAIRERENLMGSVRKDIESYKSGSGVNNRRTELFLKEHDHLRNSDRLIEETISIAMATKENMTSQRGMLKSIHSKMNTLANRFPAVNSLIQRINLRKRRDSLILGGVIGICTILLLLYAFH
B1 came in with a percent of total co-precipitated of 5%.
